Measured values reported in US20190062438A1 (CSL, published 2019).
Residue numbers refer to the chain shown, from its start.

B1: 9A2-VR5 (antibody, V domains shown)
VH: EVQLLESGGGLVQPGGSLRLSCAASGFTFSHYHMLWVRQAPGKGLEWVSSIRSSGGFTYYADSVKGRFTISRDNSKNTLYLQMNSLRAEDTAVYYCARFYDSFFDIWGQGTMVTVSS
VL: DIQMTQSPSSVSASVGDRVTITCRASQGIRPFVAWYQQKPGKAPKLLIYAASSLQSGVPSRFSGSGSGTDFTLTISSLQPEDFATYYCQQANSFPITFGQGTRLEIKR
B2: 9A2-VR9 (antibody, V domains shown)
VH: B1 VH
VL: B1 VL with V33I, A34D
B3: 9A2-VR11 (antibody, V domains shown)
VH: B1 VH
VL: B1 VL with I29V, A34S
B4: 9A2-VR12 (antibody, V domains shown)
VH: B1 VH
VL: B1 VL with A34S
B5: 9A2-VR8 (antibody, V domains shown)
VH: B1 VH
VL: B1 VL with I29V, V33I, A34S
B6: 9A2-VR6 (antibody, V domains shown)
VH: B1 VH
VL: B1 VL with I29V, A34N
B7: 9A2-VR24.55 (antibody, V domains shown)
VH: B1 VH with S30P, H31W, H33R, M34V, L35H, A61N, D62P, G66N
VL: B1 VL with R30S, P31S, F32W, V33L
B8: 9A2-VR24.93 (antibody, V domains shown)
VH: B1 VH with S30P, H31W, H33R, M34V, L35H, S53N, S54E, G55N, F57W
VL: B1 VL with R30S, P31S, F32W, V33L
B9: 9A2-VR24.131 (antibody, V domains shown)
VH: B1 VH with S30P, H31W, H33R, M34V, L35H, A61N, D62P, K65M
VL: B1 VL with R30S, P31S, F32W, V33L
B10: 9A2-VR24.122 (antibody, V domains shown)
VH: B1 VH with S30P, H31W, H33R, M34V, L35H, A61N, D62S, S63E
VL: B1 VL with R30S, P31S, F32W, V33L
B11: 9A2-VR24.33 (antibody, V domains shown)
VH: B1 VH with S30P, H31W, H33R, M34V, L35H, T58P, A61N, D62H, S63K
VL: B1 VL with R30S, P31S, F32W, V33L
B12: 9A2-VR24.97 (antibody, V domains shown)
VH: B1 VH with S30P, H31W, H33R, M34V, L35H, T58P, A61S, D62L
VL: B1 VL with R30S, P31S, F32W, V33L
B13: 9A2-VR24.98 (antibody, V domains shown)
VH: B1 VH with S30P, H31W, H33R, M34V, L35H, T58P, Y59H, A61N, D62S, S63V
VL: B1 VL with R30S, P31S, F32W, V33L
B14: 9A2-VR39.02 (antibody, V domains shown)
VH: B1 VH with S30Y, H31W, L35I, R52N, S53G, S54R, G56R, F57V
VL: B1 VL with R30S, P31S, F32W, V33L
B15: 9A2-VR39.19 (antibody, V domains shown)
VH: EVQLLESGGGLVQPGGSLRLSCAASGFTFQYFNVIWVRQAPGKGLEWVSSINGRGRVTYYADSVKGRFTISRDNSKNTLYLQMNSLRAEDTAVYYCARFYDSFFDIWGQGTMVTVSS
VL: B1 VL with R30S, P31S, F32W, V33L
B16: 9A2-VR39.04 (antibody, V domains shown)
VH: B15 VH with Q30N, Y31W, N33Q, V34H
VL: B1 VL with R30S, P31S, F32W, V33L
B17: 9A2-VR39.18 (antibody, V domains shown)
VH: B15 VH with Q30P, Y31G, F32Y, N33V, V34W
VL: B1 VL with R30S, P31S, F32W, V33L
B18: 9A2-VR39.21 (antibody, V domains shown)
VH: B15 VH with Y31H, F32Y, N33H, V34T, I35V
VL: B1 VL with R30S, P31S, F32W, V33L
B19: 9A2-VR24.91 (antibody, V domains shown)
VH: B15 VH with Q30P, Y31W, F32Y, N33R, I35H, N52H, G53T, R54H, G55R, R56Q
VL: B1 VL with R30S, P31S, F32W, V33L
B20: 9A2-VR39.12 (antibody, V domains shown)
VH: B15 VH with Q30F, Y31W, V34T, I35V
VL: B1 VL with R30S, P31S, F32W, V33L
B21: 9A2-VR24.124 (antibody, V domains shown)
VH: B1 VH with S30P, H31W, H33R, M34V, L35H, A61T, D62P, K65R
VL: B1 VL with R30S, P31S, F32W, V33L
B22: 9A2-VR24.110 (antibody, V domains shown)
VH: B1 VH with S30P, H31W, H33R, M34V, L35H, T58P, A61N, D62N, S63H
VL: B1 VL with R30S, P31S, F32W, V33L
B23: 9A2-VR24.56 (antibody, V domains shown)
VH: B1 VH with S30P, H31W, H33R, M34V, L35H, A61N, D62P, S63A, K65R
VL: B1 VL with R30S, P31S, F32W, V33L
B24: 9A2-VR24.102 (antibody, V domains shown)
VH: B1 VH with S30P, H31W, H33R, M34V, L35H, T58P, Y59F, A61N, D62S
VL: B1 VL with R30S, P31S, F32W, V33L
B25: 9A2-VR39.05 (antibody, V domains shown)
VH: B15 VH with Q30P, Y31W, N33H, V34T, I35V
VL: B1 VL with R30S, P31S, F32W, V33L
B26: 9A2-VR39.16 (antibody, V domains shown)
VH: B15 VH with Y31W, V34I, I35V
VL: B1 VL with R30S, P31S, F32W, V33L
B27: 9A2-VR24.107 (antibody, V domains shown)
VH: B1 VH with S30P, H31W, H33R, M34V, L35H, T58P, A61N, D62P, S63F
VL: B1 VL with R30S, P31S, F32W, V33L
B28: 9A2-VR39.17 (antibody, V domains shown)
VH: B15 VH with Q30P, Y31F, F32Y, N33H, V34K, I35V
VL: B1 VL with R30S, P31S, F32W, V33L
B29: 9A2-VR39.01 (antibody, V domains shown)
VH: B15 VH with Q30F, Y31W, N33H, V34H, I35V
VL: B1 VL with R30S, P31S, F32W, V33L
B30: 9A2-VR39.06 (antibody, V domains shown)
VH: B15 VH with Y31W, F32Y, N33H, V34Y
VL: B1 VL with R30S, P31S, F32W, V33L
B31: 9A2-VR24.44 (antibody, V domains shown)
VH: B1 VH with S30P, H31W, H33R, M34V, L35H, T58P, A61H, D62P
VL: B1 VL with R30S, P31S, F32W, V33L
B32: 9A2-VR24.27 (antibody, V domains shown)
VH: B1 VH with S30P, H31W, H33R, M34V, L35H, T58P, A61H, D62Q, S63K
VL: B1 VL with R30S, P31S, F32W, V33L
B33: 9A2-VR24.87 (antibody, V domains shown)
VH: EVQLLESGGGLVQPGGSLRLSCAASGFTFPWYRVHWVRQAPGKGLEWVSSIHTHSDWTYYADSVKGRFTISRDNSKNTLYLQMNSLRAEDTAVYYCARFYDSFFDIWGQGTMVTVSS
VL: B1 VL with R30S, P31S, F32W, V33L
B34: 9A2-VR24.57 (antibody, V domains shown)
VH: B1 VH with S30P, H31W, H33R, M34V, L35H, A61N, D62P, S63K, G66H
VL: B1 VL with R30S, P31S, F32W, V33L
B35: 9A2-VR24.84 (antibody, V domains shown)
VH: B33 VH with S55R, D56P
VL: B1 VL with R30S, P31S, F32W, V33L
B36: 9A2-VR24.111 (antibody, V domains shown)
VH: B1 VH with S30P, H31W, H33R, M34V, L35H, T58P, Y59M, A61N, D62P, S63H
VL: B1 VL with R30S, P31S, F32W, V33L
B37: 9A2-VR24.30 (antibody, V domains shown)
VH: B1 VH with S30P, H31W, H33R, M34V, L35H, T58P, A61N, D62R, S63R
VL: B1 VL with R30S, P31S, F32W, V33L
B38: 9A2-VR39.11 (antibody, V domains shown)
VH: B15 VH with Y31E, N33H, V34T
VL: B1 VL with R30S, P31S, F32W, V33L

These binders were tested against T1, human CD131 (human, UniProt P32927 17-897) (assay: cell-based or functional assay).
T1 sequence: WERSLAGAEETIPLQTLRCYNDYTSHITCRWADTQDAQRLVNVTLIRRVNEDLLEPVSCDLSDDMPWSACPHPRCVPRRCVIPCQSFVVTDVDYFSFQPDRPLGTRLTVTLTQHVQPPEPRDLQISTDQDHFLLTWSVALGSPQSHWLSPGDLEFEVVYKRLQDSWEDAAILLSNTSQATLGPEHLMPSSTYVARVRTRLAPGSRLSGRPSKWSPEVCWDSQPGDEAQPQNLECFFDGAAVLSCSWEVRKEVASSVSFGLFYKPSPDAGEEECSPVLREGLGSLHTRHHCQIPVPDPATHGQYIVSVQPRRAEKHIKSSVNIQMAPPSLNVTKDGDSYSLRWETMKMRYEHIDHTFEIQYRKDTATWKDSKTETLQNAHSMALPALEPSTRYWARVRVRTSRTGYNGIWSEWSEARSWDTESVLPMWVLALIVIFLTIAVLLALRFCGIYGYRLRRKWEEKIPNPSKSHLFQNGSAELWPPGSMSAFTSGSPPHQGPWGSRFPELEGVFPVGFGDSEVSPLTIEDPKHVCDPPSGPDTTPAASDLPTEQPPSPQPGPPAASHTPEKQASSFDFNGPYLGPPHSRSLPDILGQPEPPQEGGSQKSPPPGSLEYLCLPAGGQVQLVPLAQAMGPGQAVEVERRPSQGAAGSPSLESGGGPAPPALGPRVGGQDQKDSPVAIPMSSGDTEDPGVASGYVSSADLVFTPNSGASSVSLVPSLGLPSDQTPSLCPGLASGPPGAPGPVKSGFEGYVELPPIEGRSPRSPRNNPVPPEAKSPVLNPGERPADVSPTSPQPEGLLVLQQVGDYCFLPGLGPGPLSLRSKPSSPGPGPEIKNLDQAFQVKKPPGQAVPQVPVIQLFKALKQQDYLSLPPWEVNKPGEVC
With B1 the “IC50 GM-CSF, TF-1 proliferation” value was 87 nM. For B2, the “IC50 GM-CSF, TF-1 proliferation” value was 72.7 nM. In the case of B3, the “IC50 GM-CSF, TF-1 proliferation” value is reported as 353 nM. With B4 the “IC50 GM-CSF, TF-1 proliferation” value was 198 nM. B5 was tested, and the “IC50 GM-CSF, TF-1 proliferation” value was 57.7 nM. In the case of B6, the “IC50 GM-CSF, TF-1 proliferation” value is reported as 250 nM.

Biological target: T1, human CD131
Test: cell-based or functional assay
Remark: another data set of the same source
In the case of B7, the “IC50 GM-CSF, TF-1 proliferation” value is reported as 0.6 nM. For B8, the “IC50 GM-CSF, TF-1 proliferation” value was 0.92 nM. With B9 the “IC50 GM-CSF, TF-1 proliferation” value was 1.06 nM. For B10, the “IC50 GM-CSF, TF-1 proliferation” value was 0.66 nM. In the case of B11, the “IC50 GM-CSF, TF-1 proliferation” value is reported as 0.34 nM. For B12, the “IC50 GM-CSF, TF-1 proliferation” value was 0.16 nM. With B13 the “IC50 GM-CSF, TF-1 proliferation” value was 0.25 nM. B14 was tested, and the “IC50 GM-CSF, TF-1 proliferation” value was 0.46 nM. For B15, the “IC50 GM-CSF, TF-1 proliferation” value was 7.26 nM. For B16, the “IC50 GM-CSF, TF-1 proliferation” value was 30.4 nM. In the case of B17, the “IC50 GM-CSF, TF-1 proliferation” value is reported as over 1000 nM. B18 was tested, and the “IC50 GM-CSF, TF-1 proliferation” value was 0.96 nM. In the case of B19, the “IC50 GM-CSF, TF-1 proliferation” value is reported as 0.5 nM. In the case of B20, the “IC50 GM-CSF, TF-1 proliferation” value is reported as 25.1 nM. For B21, the “IC50 GM-CSF, TF-1 proliferation” value was 0.54 nM. With B22 the “IC50 GM-CSF, TF-1 proliferation” value was 0.24 nM. For B23, the “IC50 GM-CSF, TF-1 proliferation” value was 0.48 nM. In the case of B24, the “IC50 GM-CSF, TF-1 proliferation” value is reported as 0.32 nM. In the case of B25, the “IC50 GM-CSF, TF-1 proliferation” value is reported as 0.96 nM. With B26 the “IC50 GM-CSF, TF-1 proliferation” value was 6.07 nM. For B27, the “IC50 GM-CSF, TF-1 proliferation” value was 0.3 nM. With B28 the “IC50 GM-CSF, TF-1 proliferation” value was 0.67 nM. For B29, the “IC50 GM-CSF, TF-1 proliferation” value was 0.51 nM. For B30, the “IC50 GM-CSF, TF-1 proliferation” value was 1.85 nM. With B31 the “IC50 GM-CSF, TF-1 proliferation” value was 0.4 nM. For B32, the “IC50 GM-CSF, TF-1 proliferation” value was 0.25 nM. With B33 the “IC50 GM-CSF, TF-1 proliferation” value was 2.37 nM. For B34, the “IC50 GM-CSF, TF-1 proliferation” value was 0.33 nM. With B35 the “IC50 GM-CSF, TF-1 proliferation” value was 0.21 nM. With B36 the “IC50 GM-CSF, TF-1 proliferation” value was 0.42 nM. With B37 the “IC50 GM-CSF, TF-1 proliferation” value was 0.25 nM. B38 was tested, and the “IC50 GM-CSF, TF-1 proliferation” value was 18.6 nM.
